This note sets out measurements from the DeepSol protein solubility set.

The nature of the data set: soluble on expression in E. coli; label from the status in PepcDB or PDB records.
Turning to “MGESIPLAAPVPVEQAVLETFFSHLGIFSYDKAKDNVEKEREADKSAGGSWLSLLAALAHLAAAEKVYHSLTYLGQKLGGQSFFSRKDSIRTIYTSLHNELKKVVTGRGALGGTAPHVEELLSHLSEQLCFFVQARMEIADFYEKMYTLSTQKFINAEELVGLLDAIMKKYSSRFHHPILSPLESSFQLEVDVLCHLLKAQAQVSEWKFLPSLVNLHSAHTKLQTWGQIFEKQRETKKHLFGGQSQKAVQPPHLFLWLMKLKNMLLAKFSFYFHEALSRQTTASEMKTLTAKANPDFFGKISSFIRKYDAANVSLIFDNRGSESSQGHGYHHPHSYREAPKGVDQYPAVVSLPSDRPVMHWPNVIMIMTDRTSDLNSLEKVVHFYDDKVQSTYFLTRPEPHFTIVIIFESKKSERDSHFISFLNEVSLALKNPKVFASLKPGSKGSCYQCNYFVAFCLDYSKLLLQRK”, the “soluble on expression in E. coli” value is recorded as “not soluble”.

With “MGFLPISLLHLVIKLLKNSLRKSSRELKDNFYDEPYIVLSELRELKTYFSILSAIAAGKRKPSEMANEVDLEGRKIHSYIETLIRLGFVERDLLVARKEKRWLYIISDPMLMSWFSLVYPKRTEIEIGAMTIDDVKEILQRIFSFRFEQVSREFLIELNRKGNLPFRFTKIGRWWHKEEEIDIVALNEKEKKSLLIEIKWKELKEREIKGILNDLELEGWDKIYGVIAKKVQKKENLWERGFLIWDLEDLDVLAAALEHHHHHH”, the “soluble on expression in E. coli” value was “not soluble”.

For the sequence “MGGKMEKITCVGHTALDYIFNVEKFPEPNTSIQIPSARKYYGGAAANTAVGIKKLGVNSELLSCVGYDFKNSGYERYLKNLDINISKLYYSEEEETPKAWIFTDKDNNQITFFLWGAAKHYKELNPPNFNTEIVHIATGDPEFNLKCAKKAYGNNLVSFDPGQDLPQYSKEMLLEIIEHTNFLFMNKHEFERASNLLNFEIDDYLERVDALIVTKGSKGSVIYTKDKKIEIPCIKAGKVIDPTGAGDSYRAGFLSAYVKGYDLEKCGLIGAATASFVVEAKGCQTNLPTWDKVVERLEKHRI”, the “soluble on expression in E. coli” value is given as “soluble”.

For “MGGLFVTPAKAVKTTNYAEEIAALQPGTTPEEIMKSASQIAKQQHVKQDVILKQFYKEITADKAEGDRLAKESGMSIMGGSSGTKKLPTSAKGNIYYTNSYTAYYNHGHVGMYSAADKIVESVPSDGVRQIAYNARDVEDNSIVQTVSVSSSQKTAAADWAVSKVGDPYSFNFVNNRNTGHDGAKNCSKLLWSAFLLKAGIDIDSNGGLGVYPRDITSSSYTTTIMTIYLEHHHHHH”, the “soluble on expression in E. coli” value was “not soluble”.

As for “MGGLVSRCEAFSSSAEQKLSQGRNTSMDEKTTQTKPSRRPWFWKRIERTELPNPGSYEDINQEASAVLRPNLFDGFRFDFNYPLSAMFSMGHSIEMGSLQKPPGYAFSANYLSNHLVMLSRVDLSGHVNGRVFINHSPFLTSKIVAETSSQPNESKATWDLDYRGSDFCGQLKFGNMGIVALSYLQSVTPNLSLGGEGFYQGATGFSAITAAGRYVTHDGVATCTIASFGPLVASYCHRVNPRVTLATEFFWDLRSRDSLVTIGYKFDLRQATVTGQIDTNGRVAALLEEKINPGLSFLLSGEIDHSRQEYKFGFGVTIGQ”, the “soluble on expression in E. coli” value is recorded as “soluble”.

“MGGSALNQGVLEGDDAPGQSLYERLSQRMLDISGDRGVLKDVIREGAGDLVAPDASVLVKYYGYLEHLDRPFDSNYFRKTPRLMKLGEDITLWGMELGLLSMQRGELARCFVLGKLLDSQGPSLHLYLRAS”: the “soluble on expression in E. coli” value was “not soluble”.

For the sequence “MGGSHHHHHHGMASMTGGQQMGRDLYDDDDKDRWGSELEISMEQVSASIGNFTVDLFNKLNETNRDKNIFFSPWSISSALALTYLAAKGSTAREMAEVLHFEQAENIHSGFKELLTAFNKPRNNYSLRSANRIYVEKTYALLPTYLQLSKKYYKAEPQKVNFKTAPEQSRKEINTWVEKQTESKIKNLLSSDDVKATTRLILVNAIYFKAEWEVKFQAEKTSIQPFRLSKNKSKPVKMMYMRDTFPVLIMEKMNFKMIELPYVKRELSMFILLPDDIKDGTTGLEQLERELTYERLSEWADSKMMTETLVDLHLPKFSLEDRIDLRDTLRNMGMTTAFTTNADFRGMTDKKDLAISKVIHQSFVAVDEKGTEAAAATAVIISFTTSVINHVLKFKVDHPFHFFIRHNKSKTILFFGRFCCPVE”, the “soluble on expression in E. coli” value is on record as “soluble”.

On to “MGGSHHHHHHGMASMTGGQQMGRTLYDDDDKDRWGSRKIVVVGGVAGGASVAARLRRLSEEDEIIMVERGEYISFANCGLPYYIGGVITERQKLLVQTVERMSKRFNLDIRVLSEVVKINKEEKTITIKNVTTNETYNEAYDVLILSPGAKPIVPSIPGIEEAKALFTLRNVPDTDRIKAYIDEKKPRHATVIGGGFIGVEMVENLRERGIEVTLVEMANQVMPPIDYEMAAYVHEHMKNHDVELVFEDGVDALEENGAVVRLKSGSVIQTDMLILAIGVQPESSLAKGAGLALGVRGTIKVNEKFQTSDPHIYAIGDAIEVKDFVTETETMIPLAWPANRQGRMLADIIHGHTDSLYKGTLGTSVAKVFDLTVATTGLNEKILKRLNIPYEVVHVQANSHAGYYPNATPVLIKLIFNKDSGKIYGAQTLGRDGVDKRMDVIATAIKANLTVLDLPDLELSYAPPYSSAKDPVNMVGYAASNIVDGFVDTVQWHEIDRIVENGGYLIDVREPNELKQGMIKGSINIPLDELRDRLEEVPVDKDIYITCQLGMRGYVAARMLMEKGYKVKNVDGGFKLYGTVLPERIVY”, for which the “soluble on expression in E. coli” value is “soluble”.

As for “MGHHHHHHEFMLKNDDFVIAKNQLGNIVPNSVGVIRAVNGKSAMVLFIGLNELKRVDFSELEAIDIYRTGKGYDKKICNICHILKNTDGFEINQTDAKGRKTTRPSCRECRKNIDGVKLSSTEKKKMDEIAPPKGSVFTCPICEKRSIVGVTANLVHDHNHDTGWGREWICDSCNTGLGRFKDNPKFLEKVIEYLKKYEK”, the “soluble on expression in E. coli” value is recorded as “soluble”.

As for “MGHHHHHHENLYFQSHLYFQSHDCGSAVTERPKAAPIPTVNPEGKLKKEPNMFSPTLMLPGLGTLSSSQMYPACSQMPTQPAQLGPGKQDTLHSCWQQLYSPSPSASSLLSLHSHSSFTAEVPQPGAQGSSSLPAYNPLNWPDEKNSSFYRNFGNTHGMGAALVSAAGMQSVSSSSIVQGTHQASATTASIMTMPRTPGEVPFLRQQVGYRS”, the “soluble on expression in E. coli” value is “not soluble”.

“MGHHHHHHENLYFQSHLYFQSHINEQEREIEKLKRQMAEYGAIIKSLQFRQNSLEDTFIPDLTPKVEPSVNPTGCLLGSNAVHLMRDIKKECDYLGIPDPVPATKPTTQAQDDSQKKAKRSCFGRLFTGPFRRGTSAMKTADEYEKDDRLEELYAQLERDPDP”: the “soluble on expression in E. coli” value is “not soluble”.

For the sequence “MGHHHHHHGSRKGAELGILIKNADALEVAEKVTAVIFDKTGTLTKGKPEVTDLVPLNGDERELLRLAAIAERRSEHPIAEAIVKKALEHGIELGEPEKVEVIAGEGVVADGILVGNKRLMEDFGVAVSNEVELALEKLEREAKTAVIVARNGRVEGIIAVSDTLKESAKPAVQELKRMGIKVGMITGDNWRSAEAISRELNLDLVIAEVLPHQKSEEVKKLQAKEVVAFVGDGINDAPALAQADLGIAVGSGSDVAVESGDIVLIRDDLRDVVAAIQLSRKTMSKIK”, the “soluble on expression in E. coli” value is on record as “soluble”.

“MGHHHHHHSHDDDDLNTIEFKILAYYTRHHVFKSTPALFSPKLLRTRSLSQRGLGNCSANESWTEVSWPCRNSQSSEKAINLGKKKSSWKAFFGVVEKEDSQSTPAKVSAQGQRTLEYQDSHSQQWSRCLSNVEQCLEHEAVDPKVISIANRVAEIVYSWPPPQATQAGGFKSKEIFVTEGLSFQLQGHVPVASSSKKDEEEQILAKIVELLKYSGDQLERKLKKDKALMGHFQDGLSYSVFKTITDQVLMGVDPRGESEVKAQGFKAALVIDVTAKLTAIDNHPMNRVLGFGTKYLKENFSPWIQQHGGWEKILGISHEEVD”: the “soluble on expression in E. coli” value is “not soluble”.

Turning to “MGHHHHHHSHGNLVTELIYVHSKLLIADDNTVIIGSANINDRSMLGKRDSEMAVIVQDTETVPSVMDGKEYQAGRFARGLRLQCFRVVLGYLDDPSEDIQDPVSDKFFKEVWVSTAARNATIYDKVFRCLPNDEVHNLIQLRDFINKPVLAKEDPIRAEEELKKIRGFLVQFPFYFLSEESLLPSVGTKEAIVPMEVWT”, the “soluble on expression in E. coli” value was “not soluble”.

For “MGHHHHHHSHGTRMDHRSDLVFLADLRPEEIRYRLQHYFKFLFVREPLERLLSAYRNKFGEIREYQQRYGAEIVRRYRAGAGPSPAGDDVTFPEFLRYLVDEDPERMNEHWMPVYHLCQPCAVHYDFVGSYERLEADANQVLEWVRAPPHVRFPARQAWYRPASPESLHYHLCSAPRALLQDVLPKYILDFSLFAYPLPNVTKEACQQ”, the “soluble on expression in E. coli” value was “not soluble”.

As to “MGHHHHHHSHLFQGDDAKEKIAVVDETNELYPVFSKQLKAVDTDGDLDVKLSKQSEDEVTKQVKDESLDGMLIIKRDEKGTISGTYKALTISDESTYQTLQQALTQTKTAVGTAELGVSQETISSLYAPVTVGQKALKEGAKSEEELGQT”, the “soluble on expression in E. coli” value was “not soluble”.

“MGHHHHHHSHLQHETQELASKRVDIQNKRFYLDVKQNAKGRFLKIAEVGAGGNKSRLTLSMSVAVEFRDYLGDFIEHYAQLGPSQPPDLAQAQDEPRRALKSEFLVRENRKYYMDLKENQRGRFLRIRQTVNRGPGLGSTQGQTIALPAQGLIEFRDALAKLIDDYGVEEEPAELPEGTSLTVDNKRFFFDVGSNKYGVFMRVSEVKPTYRNSITVPYKVWAKFGHTFCKYSEEMKKIQEK”: the “soluble on expression in E. coli” value is given as “soluble”.

On to “MGHHHHHHSHMAKAITGVVCYACRIASTLLLYQELMRKGIRWLIELIKDDYNETVHKKTEVVITLDFCIRNIEKTVKVYEKLMKINLEAAELGEISDIHTKLLRLSSSQGTIETSLQDIDSRLSPGGSLADAWAHQEGTHPKDRNVEKLQVLLNCMTEIYYQFKKDKAERRLAYNEEQIHKFDKQKLYYHATKAMTHFTDECVKKYEAFLNKSEEWIRKMLHLRKQLLSLTNQCFDIEEEVSKYQEYTNELQETLPQKMFTASSGIKHTMTPIYPSSNTLVEMTLGMKKLKEEMEGVVKELAENNHILERFGSLTMDGGLRNVDCL”, for which the “soluble on expression in E. coli” value was “not soluble”.

Turning to “MGHHHHHHSHMAQKPGTMAQMRNGTSGGDKRQYETEVIILNQCRKLNGQIFIQRDYSKGLDVQFEAEYPARLTEKVPRDVWENTIVRINRIFADAEAITPQTIFETVLGCFTCYASYAITKSTYRRKLDELQEFLNRENREIYHHVGFHIRNPMERGLRVLEISLLSRQGETPRDDVDSPGGAIRTI”, the “soluble on expression in E. coli” value was “not soluble”.

Consider “MGHHHHHHSHMAQSINITELNLPQLEMLKNQLDQEVEFLSTSIAQLKVVQTKYVEAKDCLNVLNKSNEGKELLVPLTSSMYVPGKLHDVEHVLIDVGTGYYVEKTAEDAKDFFKRKIDFLTKQMEKIQPALQEKHAMKQAVMEMMSQKIQQLTALGAAQATAKA”, for which the “soluble on expression in E. coli” value is recorded as “not soluble”.

Regarding “MGHHHHHHSHMDNAERPRARRRRKPRVLFSQAQVYELERRFKQQRYLSAPERDQLASVLKLTSTQVKIWFQNRRYKCKRQRQDQTLELVGLPPPPPPPARRIAVPVLVRDGKPCLGD”, the “soluble on expression in E. coli” value is “soluble”.

Regarding “MGHHHHHHSHMEAPPVTMMPVTGGTINMMEYLLQGSVLDHSLESLIHRLRGLCDNMEPETFLDHEMVFLLKGQQASPFVLRARRSMDRAGAPWHLRYLGQPEMGDKNRHALVRNCVDIATSENLTDFLMEMGFRMDHEFVAKGHLFRKGIMKIMVYKIFRILVPGNTDSTEALSLSYLVELSVVAPAGQDMVSDDMKNFAEQLKPLVHLEKIDPKRLM”, the “soluble on expression in E. coli” value is “soluble”.
